B1: synthetic FvTox1-interacting fusion peptide 8 (PEP1-PEP2-PEP4; His-tagged, expressed in E. coli) (designed binder)
chain: GGGGSGGGGSGGGGSSYLPETIYEYRLGGGGSELGGGGSGGGGSGGGGSVENKTRYHDREVGGGGSLEGGGGSGGGGSGGGGSSNGRVADGGGGS
B2: synthetic FvTox1-interacting fusion peptide 7 (PEP1-PEP2-PEP3; His-tagged, expressed in E. coli) (designed binder)
chain: GSGGGGSGGGGSGGGGSSYLPETIYEYRLGGGGSELGGGGSGGGGSGGGGSVENKTRYHDREVGGGGSLEGGGGSGGGGSGGGGSHEGAWHNYARSVGGGGS
B3: synthetic FvTox1-interacting fusion peptide 5 (PEP1-PEP2; His-tagged, expressed in E. coli) (designed binder)
chain: GGGGSGGGGSGGGGSSYLPETIYEYRLGGGGSELGGGGSGGGGSGGGGSVENKTRYHDREVGGGGS
B4: synthetic FvTox1-interacting fusion peptide 6 (PEP3-PEP4; His-tagged, expressed in E. coli) (designed binder)
chain: GGGSGGGGSGGGGSHEGAWHNYARSVGGGGSELGGGGSGGGGSGGGGSSNGRVADGGGGS
B5: synthetic FvTox1-interacting fusion peptide 9 (PEP1-PEP2-PEP3-PEP4; His-tagged, expressed in E. coli) (designed binder)
chain: GGGGSGGGGSGGGGSSYLPETIYEYRLGGGGSELGGGGSGGGGSGGGGSVENKTRYHDREVGGGGSLEGGGGSGGGGSGGGGSHEGAWHNYARSVGGGGSGTGGGGSGGGGSGGGGSSNGRVADGGGGS
B6: synthetic FvTox1-interacting fusion peptide 8 in pB42AD (no flanking cysteines) (designed binder)
chain: GGGGSGGGGSGGGGSSYLPETIYEYRLGGGGSELGGGGSGGGGSGGGGSVENKTRYHDREVGGGGSLEGGGGSGGGGSGGGGSSNGRVADGGGGS
B7: synthetic FvTox1-interacting fusion peptide 7 in pB42AD (no flanking cysteines) (designed binder)
chain: GSGGGGSGGGGSGGGGSSYLPETIYEYRLGGGGSELGGGGSGGGGSGGGGSVENKTRYHDREVGGGGSLEGGGGSGGGGSGGGGSHEGAWHNYARSVGGGGS
B8: synthetic FvTox1-interacting fusion peptide 5 in pB42AD (no flanking cysteines) (designed binder)
chain: GGGGSGGGGSGGGGSSYLPETIYEYRLGGGGSELGGGGSGGGGSGGGGSVENKTRYHDREVGGGGS
B9: synthetic FvTox1-interacting fusion peptide 6 in pB42AD (no flanking cysteines) (designed binder)
chain: GGGSGGGGSGGGGSHEGAWHNYARSVGGGGSELGGGGSGGGGSGGGGSSNGRVADGGGGS
B10: synthetic FvTox1-interacting fusion peptide 9 in pB42AD (no flanking cysteines) (designed binder)
chain: GGGGSGGGGSGGGGSSYLPETIYEYRLGGGGSELGGGGSGGGGSGGGGSVENKTRYHDREVGGGGSLEGGGGSGGGGSGGGGSHEGAWHNYARSVGGGGSGTGGGGSGGGGSGGGGSSNGRVADGGGGS

The molecules below were run against GST-tagged FvTox1 (Fusarium virguliforme) (assay: pull-down; purified His-tagged peptides/fusion proteins mixed with GST-tagged FvTox1, pulled down with glutathione resin; western blot with anti-His antibody; relative percent pulled down, two independent experiments).
B1 gave a percent peptide pulled down by FvTox1 (relative binding strength) of 26 percent.
For B2, the percent peptide pulled down by FvTox1 (relative binding strength) was 38.5 percent.
Work on B3 yielded a percent peptide pulled down by FvTox1 (relative binding strength) of 31.8 percent.
For GGGGSGGGGSGGGGSHEGAWHNYARSVGGGGS [synthetic FvTox1-interacting peptide 3 (His-tagged, expressed in E. coli)], the percent peptide pulled down by FvTox1 (relative binding strength) was 2.7 percent.
B4 showed a percent peptide pulled down by FvTox1 (relative binding strength) of 8.8 percent.
GGGGSGGGGSGGGGSSYLPETIYEYRLGGGGS [synthetic FvTox1-interacting peptide 1 (His-tagged, expressed in E. coli)] showed a percent peptide pulled down by FvTox1 (relative binding strength) of 3.9 percent.
GGGGSGGGGSGGGGSSNGRVADGGGGS [synthetic FvTox1-interacting peptide 4 (His-tagged, expressed in E. coli)] showed a percent peptide pulled down by FvTox1 (relative binding strength) of 2.3 percent.
For B5, the percent peptide pulled down by FvTox1 (relative binding strength) was 47 percent.
Molecule GGGGSGGGGSGGGGSVENKTRYHDREVGGGGS [synthetic FvTox1-interacting peptide 2 (His-tagged, expressed in E. coli)] has a percent peptide pulled down by FvTox1 (relative binding strength) of 5.5 percent.

The molecules below were run against FvTox1 in the pLexA vector (LexA fusion) (Fusarium virguliforme) (assay: two-hybrid; LexA two-hybrid system, yeast EGY48 [pSH18-34]; FvTox1 in pLexA, peptides in pB42AD; reporters LacZ and LEU2; quantitative β-galactosidase activity (Miller units), three biological replications).
Molecule “soybean GmTRX3, a thioredoxin protein (natural protein)” has a β-galactosidase activity of 9.64 Miller units.
With “soybean GmGD1, a glycine cleavage protein (natural protein)” the β-galactosidase activity was 5.79 Miller units.
B6 was tested, and the β-galactosidase activity was 3.35 Miller units.
Work on GGGGSGGGGSGGGGSSNGRVADGGGGS [synthetic FvTox1-interacting peptide 4 in pB42AD (no flanking cysteines)] yielded a β-galactosidase activity of 6.45 Miller units.
With B7 the β-galactosidase activity was 6.12 Miller units.
With B8 the β-galactosidase activity was 3.11 Miller units.
In the case of GGGGSGGGGSGGGGSHEGAWHNYARSVGGGGS [synthetic FvTox1-interacting peptide 3 in pB42AD (no flanking cysteines)], the β-galactosidase activity is reported as 5.87 Miller units.
B9 gave a β-galactosidase activity of 5.32 Miller units.
For GGGGSGGGGSGGGGSSYLPETIYEYRLGGGGS [synthetic FvTox1-interacting peptide 1 in pB42AD (no flanking cysteines)], the β-galactosidase activity was 6.59 Miller units.
B10 was tested, and the β-galactosidase activity was 5.64 Miller units.
GGGGSGGGGSGGGGSVENKTRYHDREVGGGGS [synthetic FvTox1-interacting peptide 2 in pB42AD (no flanking cysteines)] showed a β-galactosidase activity of 5.88 Miller units.
